Test results taken from US20260027179A1, “ANTI-SYNUCLEINOPATHY PEPTIDE AND METHODS TO TREAT NEURODEGENERATIVE DISEASES” (University of British Columbia, priority 2021, published 2026).

Key:
[1] = biological target: T1, endogenous α-synuclein (Rattus norvegicus, UniProt P37377); assay: α-synuclein level in MPP+-treated ventral midbrain cultures, immunoblot; type: cell-based; settings: 25 μM, 48 hrs, MPP+ 20 μM
T1 construct: endogenous in cells; host or cells: primary rat cortical neurons (14 DIV) and primary rat ventral midbrain neurons (3 DIV)
Experimental: Primary rat neuron cultures were prepared from embryos of pregnant Sprague-Dawley rats (E18). The experimental protocol was approved by the University of British Columbia Animal Care Committee. Briefly, the cortical tissue or ventral midbrain tissue was isolated into ice cold HBSS (Invitrogen, 14170-112) and then digested with 0.25% trypsin-EDTA at 37° C. for 30 min. After washing with warm DMEM (supplemented with 10% FBS) three times, neurons were suspended in neuron culture media and dissociated by trituration using varying sizes of pipettes. Neurons were then centrifuged, and the pellet was re-suspended in culture media, washed twice with culture media, and plated on the poly-D-lysine-coated plates. Neuron culture was maintained in the 37° C. incubator with 95% O2 and 5% CO2. The morning after culturing, 2/3 of the neuron culture media was replaced with fresh neuron culture media. Media was then replaced every 3-4 days. […]
(§1) Brain tissues or cultured cells were lysed on ice in the lysis buffer and then the solution was centrifuged at 14,000 rpm for 10 min at 4° C. Next, the supernatant was collected and protein concentrations were determined using a BCA protein assay kit (Thermo Scientific, 23227). […] The band density of each protein was quantified by the Bio-Rad Quantity One software and the relative optical density was analyzed relative to the loading control β-actin on the same membrane.

[2] = biological target: T2, human A53T α-synuclein (Homo sapiens, UniProt P37840, A53T); assay: Brain α-synuclein ELISA in M83 transgenic mice after i.p. injection; type: in vivo, mouse; settings: 40 mg/kg i.p.
T2 construct: tissue The Jackson Laboratory 004479; host or cells: brain of M83 hemizygous transgenic mice
Experimental: Tat-βsyn-degron peptide was also shown to decrease α-synuclein levels in vivo, using M83 transgenic mice that overexpress mutant human A53T α-synuclein. M83 mice, injected intra-peritoneally (i.p.) with 40 mg/kg Tat-βsyn-degron peptide, were sacrificed at time points of 6, 12, 24, and 48 hrs and α-synuclein levels in the brain were measured by ELISA.
Male M83 hemizygous mice overexpressing the human A53T α-synuclein mutant (12 weeks old, 25-30 g, 004479, The Jackson Laboratory) were housed individually and maintained on a 12/12 hrs light/dark cycle at 22° C. ambient temperature and with unlimited access to food and water. Housing, breeding, and procedures were performed according to the Canadian Council on Animal Care and were approved by the McGill University Animal Care Committee.
Brains were lysed (1 g tissue per 3 mL solution) in a buffer solution (50 mM Tris pH 8, 150 mM NaCl, 5 mM EDTA, 1% NP-40, 0.5% sodium deoxycholate, 0.1% SDS, protease and inhibitor cocktail [aprotinin, leupeptin and benzamidine], and phosphatase inhibitor cocktail) on ice. Lysates were homogenized at 1,600 g several times, sonicated and finally centrifuged at 100,000 g for 30 min. The supernatant was collected and processed with the Human α-synuclein ELISA kit (KHB0061, ThermoFisher Scientific) and analyzed with a Tecan microplate reader (Tecan Infinite M200 Pro, life science). The level of α-synuclein was expressed as ng/ml total sample.

[3] = system: TH-positive neurons; assay: Protection against MPP+ toxicity in ventral midbrain cultures (TH protein, TH-positive neuron counting); type: cell-based, rat; settings: 25 μM, 48 hrs, MPP+ 20 μM
Experimental: Primary rat neuron cultures were prepared from embryos of pregnant Sprague-Dawley rats (E18). The experimental protocol was approved by the University of British Columbia Animal Care Committee. Briefly, the cortical tissue or ventral midbrain tissue was isolated into ice cold HBSS (Invitrogen, 14170-112) and then digested with 0.25% trypsin-EDTA at 37° C. for 30 min. After washing with warm DMEM (supplemented with 10% FBS) three times, neurons were suspended in neuron culture media and dissociated by trituration using varying sizes of pipettes. […]
Neurons were then washed 6×2 min in PBS, and incubated in Alexa Fluor 488 (Life technologies, A-11034; 1:500 dilution in 3% BSA/PBS) for 45 min at 37° C. without agitation. […] Neurons were then imaged with the Zeiss Axio Observer D1 microscope at 20× and 10 fields of view per coverslip were randomly selected and counted. […]
as §1

## YGRKKRRQRRRRTKSGVYLVGRRRG (The sequence is synthesized (YGRKKRRQRRRRTKSGVYLVGRRRG)) [Tat-βsyn-degron]
[1]
  endogenous α-synuclein protein levels: induced a robust reduction in endogenous α-synuclein protein levels
[2]
  time of peak effect on brain α-synuclein: around 24 hrs
[2]; 12 hrs
  α-synuclein levels in the brain (ELISA): reduction of α-synuclein levels
[2]; 24 hrs
  α-synuclein levels in the brain (ELISA): reduction of α-synuclein levels
[3]; blinded counting
  numbers of TH-positive neurons after MPP+: almost fully protected dopaminergic neurons
[3]; immunoblot
  TH protein levels after MPP+: rescue of TH protein levels
